# Results taken from PMC4655838, “Versatility in phospho-dependent molecular recognition of the XRCC1 and XRCC4 DNA-damage scaffolds by aprataxin-family FHA domains” (DNA Repair, 2015).
# Square brackets hold non-standard residues; d marks the D form. Ends that are not written are not given here. pT = C[C@@H](OP(=O)(O)O)[C@H](N)C(=O)O; pS = N[C@@H](COP(=O)(O)O)C(=O)O
# Key:
# [1] = target: aprataxin FHA domain K38A (residues 1-105); experiment: ITC; peptide injected (30 x 10 ul) into FHA domain in the cell; 22 °C; 50 mM HEPES pH 7.5, 150 mM NaCl, 5 mM β-mercaptoethanol; XRCC1 peptides 1 mM into 100 μM protein, XRCC4 peptides 300 μM into 30 μM protein; single-site binding model
# [2] = target: aprataxin FHA domain (residues 1-105); experiment: as above
# [3] = target: aprataxin FHA domain (residues 1-105); experiment: NMR titration; unlabelled XRCC1 peptide added to 92 μM 15N-labelled aprataxin FHA domain up to 1:4; 22 °C; 20 mM Na acetate pH 5.8, 50 mM NaCl, 2 mM DTT; SOFAST-HMQC; apparent Kd, mean of the fits for D37, V45, Q46, V61 and V63
Binder,fold decrease in binding relative to the wild-type [1],fold increase in binding over the di-phosphorylated peptide [2],fold preference over the mono-phosphorylated (pT233) XRCC4 peptide [2],Kd [3],fold tighter binding than the XRCC1 pThr519 peptide [2],fold increase in binding over the mono-phosphorylated peptide [2]
"YAG[pS][pT]DEN[pT]DSEEHQ-NH2 (N-terminus assumed; SMILES C[C@H](NC(=O)[C@@H](N)Cc1ccc(O)cc1)C(=O)NCC(=O)N[C@@H](COP(=O)(O)O)C(=O)N[C@H](C(=O)N[C@@H](CC(=O)O)C(=O)N[C@@H](CCC(=O)O)C(=O)N[C@@H](CC(N)=O)C(=O)N[C@H](C(=O)N[C@@H](CC(=O)O)C(=O)N[C@@H](CO)C(=O)N[C@@H](CCC(=O)O)C(=O)N[C@@H](CCC(=O)O)C(=O)N[C@@H](Cc1c[nH]cn1)C(=O)N[C@@H](CCC(N)=O)C(N)=O)[C@@H](C)OP(=O)(O)O)[C@@H](C)OP(=O)(O)O) [XRCC1 515-529 peptide phosphorylated on Ser518, Thr519 and Thr523]",8.8 fold,3 fold,5 fold,< 1 µM,–,–
YDESTDEES (HELM PEPTIDE1{Y.D.E.S.[C[C@@H](OP(=O)(O)O)[C@H](N[*:1])C(=O)[*:2]].D.E.E.S.[am]}$$$$V2.0; N-terminus assumed; SMILES C[C@@H](OP(=O)(O)O)[C@H](NC(=O)[C@H](CO)NC(=O)[C@H](CCC(=O)O)NC(=O)[C@H](CC(=O)O)NC(=O)[C@@H](N)Cc1ccc(O)cc1)C(=O)N[C@@H](CC(=O)O)C(=O)N[C@@H](CCC(=O)O)C(=O)N[C@@H](CCC(=O)O)C(=O)N[C@@H](CO)C(N)=O) [XRCC4 229-237 peptide phosphorylated on Thr233],3.2 fold,–,–,–,8 fold,–
YAGSTDENTDSEEHQ (HELM PEPTIDE1{Y.A.G.S.[C[C@@H](OP(=O)(O)O)[C@H](N[*:1])C(=O)[*:2]].D.E.N.T.D.S.E.E.H.Q.[am]}$$$$V2.0; N-terminus assumed; SMILES C[C@H](NC(=O)[C@@H](N)Cc1ccc(O)cc1)C(=O)NCC(=O)N[C@@H](CO)C(=O)N[C@H](C(=O)N[C@@H](CC(=O)O)C(=O)N[C@@H](CCC(=O)O)C(=O)N[C@@H](CC(N)=O)C(=O)N[C@H](C(=O)N[C@@H](CC(=O)O)C(=O)N[C@@H](CO)C(=O)N[C@@H](CCC(=O)O)C(=O)N[C@@H](CCC(=O)O)C(=O)N[C@@H](Cc1c[nH]cn1)C(=O)N[C@@H](CCC(N)=O)C(N)=O)[C@@H](C)O)[C@@H](C)OP(=O)(O)O) [XRCC1 515-529 peptide phosphorylated on Thr519],2.7 fold,–,–,7 µM,–,–
YAGSTDENTDSEEHQ (HELM PEPTIDE1{Y.A.G.[O=C([C@H](COP(=O)(O)O)N[*:1])[*:2]].[C[C@@H](OP(=O)(O)O)[C@H](N[*:1])C(=O)[*:2]].D.E.N.T.D.S.E.E.H.Q.[am]}$$$$V2.0; N-terminus assumed; SMILES C[C@H](NC(=O)[C@@H](N)Cc1ccc(O)cc1)C(=O)NCC(=O)N[C@@H](COP(=O)(O)O)C(=O)N[C@H](C(=O)N[C@@H](CC(=O)O)C(=O)N[C@@H](CCC(=O)O)C(=O)N[C@@H](CC(N)=O)C(=O)N[C@H](C(=O)N[C@@H](CC(=O)O)C(=O)N[C@@H](CO)C(=O)N[C@@H](CCC(=O)O)C(=O)N[C@@H](CCC(=O)O)C(=O)N[C@@H](Cc1c[nH]cn1)C(=O)N[C@@H](CCC(N)=O)C(N)=O)[C@@H](C)O)[C@@H](C)OP(=O)(O)O) [XRCC1 515-529 peptide phosphorylated on Ser518 and Thr519],8.5 fold,–,–,2 µM,–,11 fold
YAGSTDENTDSEEHQ (HELM PEPTIDE1{Y.A.G.S.T.D.E.N.[C[C@@H](OP(=O)(O)O)[C@H](N[*:1])C(=O)[*:2]].D.S.E.E.H.Q.[am]}$$$$V2.0; N-terminus assumed; SMILES C[C@H](NC(=O)[C@@H](N)Cc1ccc(O)cc1)C(=O)NCC(=O)N[C@@H](CO)C(=O)N[C@H](C(=O)N[C@@H](CC(=O)O)C(=O)N[C@@H](CCC(=O)O)C(=O)N[C@@H](CC(N)=O)C(=O)N[C@H](C(=O)N[C@@H](CC(=O)O)C(=O)N[C@@H](CO)C(=O)N[C@@H](CCC(=O)O)C(=O)N[C@@H](CCC(=O)O)C(=O)N[C@@H](Cc1c[nH]cn1)C(=O)N[C@@H](CCC(N)=O)C(N)=O)[C@@H](C)OP(=O)(O)O)[C@@H](C)O) [XRCC1 515-529 peptide phosphorylated solely on Thr523],–,–,–,7 µM,–,–
YDESTDEES (HELM PEPTIDE1{Y.D.E.[O=C([C@H](COP(=O)(O)O)N[*:1])[*:2]].[C[C@@H](OP(=O)(O)O)[C@H](N[*:1])C(=O)[*:2]].D.E.E.S.[am]}$$$$V2.0; N-terminus assumed; SMILES C[C@@H](OP(=O)(O)O)[C@H](NC(=O)[C@H](COP(=O)(O)O)NC(=O)[C@H](CCC(=O)O)NC(=O)[C@H](CC(=O)O)NC(=O)[C@@H](N)Cc1ccc(O)cc1)C(=O)N[C@@H](CC(=O)O)C(=O)N[C@@H](CCC(=O)O)C(=O)N[C@@H](CCC(=O)O)C(=O)N[C@@H](CO)C(N)=O) [XRCC4 229-237 peptide phosphorylated on Ser232 and Thr233],7.6 fold,–,–,–,–,8 fold
"YDE[pS][pT]DEE[pS]-NH2 (N-terminus assumed; SMILES C[C@@H](OP(=O)(O)O)[C@H](NC(=O)[C@H](COP(=O)(O)O)NC(=O)[C@H](CCC(=O)O)NC(=O)[C@H](CC(=O)O)NC(=O)[C@@H](N)Cc1ccc(O)cc1)C(=O)N[C@@H](CC(=O)O)C(=O)N[C@@H](CCC(=O)O)C(=O)N[C@@H](CCC(=O)O)C(=O)N[C@@H](COP(=O)(O)O)C(N)=O) [XRCC4 229-237 peptide phosphorylated on Ser232, Thr233 and Ser237]",9.3 fold,–,–,–,–,–
